Experimental data taken from patent publication US20190282654A1.
Bridge positions count the residues as written; N and C are the ends. Square brackets hold non-standard residues; d marks the D form. Primed or numbered codes have the meaning given here. Ends that are not written are not given here. 2Nal = N[C@@H](Cc1ccc2ccccc2c1)C(=O)O; BMB″ = not defined here

Experiments:
[1] = target: T1, GST-NEMO(1-196), Q9Y6K9; experiment: HTRF competition: GST-NEMO (30 nM) + biotin-IKKβKK/RR(701-745) (50 nM), 5 mM TCEP
T1 chain: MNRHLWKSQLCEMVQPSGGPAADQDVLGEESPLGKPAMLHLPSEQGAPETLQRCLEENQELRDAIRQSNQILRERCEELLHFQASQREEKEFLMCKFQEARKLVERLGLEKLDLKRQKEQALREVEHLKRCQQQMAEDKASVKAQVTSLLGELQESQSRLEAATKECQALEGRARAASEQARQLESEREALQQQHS

[2] = target: NEMO (endogenous, in NF-κB reporter (Luc)-HEK293 cells), Q9Y6K9; experiment: cell-based or functional assay

IC50 [1]: 3.5 µM | TNFα-induced luciferase activity, NF-κB reporter (Luc)-HEK293 cells, IC50 [2]: 20 µM
B1: bicyclic peptide 4 (peptide)
peptide: RRRR[2Nal]FCALDWSWLQC
modifications: linker 7-16 via BMB″ (inferred); not fully specified (bridges); reading uncertain
